# Test results reported in patent US20220017589A1 (BEIJING QL BIOPHARMACEUTICAL, published 2022).
# Numbering of substitutions follows the chain as printed.
# B1: MLC105 (ligand)
# chain: HGEGTFTSDVSSYLEEQAAKEFIAWLVRGGGGAQPGAQPGAQPGAQPCQAPGAQPGAQPGAQPGQEPGAQPGQEPGAQPGQEPGAQPGQEPGAQPGQEPGAQPGQEPGAQPARQGDHCPLGPGRCCRLHTVRASLEDLGWADWVLSPREVQVTMCIGACPSQFRAANLHAQIKTSLHRLKPDTVPAPCCVPASYNPMVLIQKTDTGVSLQTYDDLLAKDCHCI
# modifications: Moiety B (HOOC-(CH2)16-CO-gGlu-2XADO-EDA-CO-CH2) on 17C of Linker (48C of fusion polypeptide)
# B2: MLC127 (ligand)
# chain: B1 chain with K20C, C48G, Q49A, A50Q
# modifications: Moiety B (HOOC-(CH2)16-CO-gGlu-2XADO-EDA-CO-CH2) on 26C of GLP-1 (20C of fusion polypeptide)
# B3: MLC122 (ligand)
# chain: B1 chain with G36C, A37Q, Q38A, C48G, Q49A, A50Q
# modifications: Moiety B (HOOC-(CH2)16-CO-gGlu-2XADO-EDA-CO-CH2) on 5C of Linker (36C of fusion polypeptide)
# B4: MLC123 (ligand)
# chain: B1 chain with C48G, Q49A, A50Q, A109Q, Q110C
# modifications: Moiety B (HOOC-(CH2)16-CO-gGlu-2XADO-EDA-CO-CH2) on 79C of Linker (110C of fusion polypeptide)
# B5: MLC087 (ligand)
# chain: B1 chain with C48G, Q49A, A50Q, G72C
# modifications: Moiety B (HOOC-(CH2)16-CO-gGlu-2XADO-EDA-CO-CH2) on 41C of Linker (72C of fusion polypeptide)
# B6: MLC107 (ligand)
# chain: B1 chain with C48G, Q49A, A50Q, G56C, A57Q, Q58A
# modifications: Moiety B (HOOC-(CH2)16-CO-gGlu-2XADO-EDA-CO-CH2) on 25C of Linker (56C of fusion polypeptide)
# B7: MLC111 (ligand)
# chain: B1 chain with C48G, Q49A, A50Q, E82C, A85Q, Q86E
# modifications: Moiety B (HOOC-(CH2)16-CO-gGlu-2XADO-EDA-CO-CH2) on 51C of Linker (82C of fusion polypeptide)
# B8: MLC089 (ligand)
# chain: B1 chain with C48G, Q49A, A50Q, A69Q, Q70C
# modifications: Moiety B (HOOC-(CH2)16-CO-gGlu-2XADO-EDA-CO-CH2) on 39C of Linker (70C of fusion polypeptide)
# B9: MLC126 (ligand)
# chain: B1 chain with C48G, Q49A, A50Q, G104C
# modifications: Moiety B (HOOC-(CH2)16-CO-gGlu-2XADO-EDA-CO-CH2) on 73C of Linker (104C of fusion polypeptide)
# B10: MLC093 (ligand)
# chain: B1 chain with C48G, Q49A, A50Q, G64C
# modifications: Moiety B (HOOC-(CH2)16-CO-gGlu-2XADO-EDA-CO-CH2) on 33C of Linker (64C of fusion polypeptide)
# B11: Native GDF15 (ligand)
# chain: ARNGDHCPLGPGRCCRLHTVRASLEDLGWADWVLSPREVQVTMCIGACPSQFRAANMHAQIKTSLHRLKPDTVPAPCCVPASYNPMVLIQKTDTGVSLQTYDDLLAKDCHCI
# B12: MLC005 (ligand)
# chain: HGEGTFTSDVSSYLEEQAAREFIAWLVRGGGGQEPGQEPGQEKGQEPGQEPGQEPGQEPGQEPGAQPGAQPARQGDHCPLGPGRCCRLHTVRASLEDLGWADWVLSPREVQVTMCIGACPSQFRAANLHAQIKTSLHRLRPDTVPAPCCVPASYNPMVLIQRTDTGVSLQTYDDLLARDCHCI
# modifications: Moiety A (HOOC-(CH2)16-CO-gGlu-2XADO) on 12K of Linker (43K of fusion polypeptide)
# B13: MLC045 (ligand)
# chain: HGEGTFTSDVSSYLEEQAAREFIAWLVRGGGKQEPGAQPGQEPGAQPGQEPGAQPGQEPGAQPGQEPGAQPGQEPGAQPGAQPGAKPGAQPGAQPGAQPGAQPGAQPGAQPARQGDHCPLGPGRCCRLHTVRASLEDLGWADWVLSPREVQVTMCIGACPSQFRAANLHAQIKTSLHRLRPDTVPAPCCVPASYNPMVLIQRTDTGVSLQTYDDLLARDCHCI
# modifications: Moiety A (HOOC-(CH2)16-CO-gGlu-2XADO) on 1K and 55K of Linker (32K and 86K of fusion polypeptide)
# B14: MLC081 (ligand)
# chain: B13 chain with R20K, K32G, E66C, A81Q, Q82E, K86Q, R180K, R202K, R218K
# modifications: Moiety C (HOOC-(CH2)20-CO-gGlu-2XADO-EDA-CO-CH2) on 35C of Linker (66C of fusion polypeptide)
# B15: MLC084 (ligand)
# chain: B13 chain with R20K, K32G, A69Q, Q70C, K86Q, R180K, R202K, R218K
# modifications: Moiety C (HOOC-(CH2)20-CO-gGlu-2XADO-EDA-CO-CH2) on 39C of Linker (70C of fusion polypeptide)
# B16: MLC075 (ligand)
# chain: B13 chain with R20K, K32G, G72C, K86Q, R180K, R202K, R218K
# modifications: Moiety C (HOOC-(CH2)20-CO-gGlu-2XADO-EDA-CO-CH2) on 41C of Linker (72C of fusion polypeptide)
# B17: MLC074 (ligand)
# chain: B13 chain with R20K, K32G, G72C, K86Q, R180K, R202K, R218K
# modifications: Moiety B (HOOC-(CH2)16-CO-gGlu-2XADO-EDA-CO-CH2) on 41C of Linker (72C of fusion polypeptide)
# B18: MLC080 (ligand)
# chain: B13 chain with R20K, K32G, E66C, A81Q, Q82E, K86Q, R180K, R202K, R218K
# modifications: Moiety B (HOOC-(CH2)16-CO-gGlu-2XADO-EDA-CO-CH2) on 35C of Linker (66C of fusion polypeptide)
# B19: MLC086 (ligand)
# chain: B13 chain with R20K, K32G, G68C, A69Q, Q70A, K86Q, R180K, R202K, R218K
# modifications: Moiety C (HOOC-(CH2)20-CO-gGlu-2XADO-EDA-CO-CH2) on 37C of Linker (68C of fusion polypeptide)
# B20: MLC085 (ligand)
# chain: B13 chain with R20K, K32G, G68C, A69Q, Q70A, K86Q, R180K, R202K, R218K
# modifications: Moiety B (HOOC-(CH2)16-CO-gGlu-2XADO-EDA-CO-CH2) on 37C of Linker (68C of fusion polypeptide)
# B21: MLC083 (ligand)
# chain: B13 chain with R20K, K32G, A69Q, Q70C, K86Q, R180K, R202K, R218K
# modifications: Moiety B (HOOC-(CH2)16-CO-gGlu-2XADO-EDA-CO-CH2) on 39C of Linker (70C of fusion polypeptide)
# B22: MLC090 (ligand)
# chain: B1 chain with C48G, Q49A, A50Q, A69Q, Q70C
# modifications: Moiety C (HOOC-(CH2)20-CO-gGlu-2XADO-EDA-CO-CH2) on 39C of Linker (70C of fusion polypeptide)
# B23: MLC088 (ligand)
# chain: B1 chain with C48G, Q49A, A50Q, G72C
# modifications: Moiety C (HOOC-(CH2)20-CO-gGlu-2XADO-EDA-CO-CH2) on 41C of Linker (72C of fusion polypeptide)
# B24: MLC091 (ligand)
# chain: B1 chain with C48G, Q49A, A50Q, E66C
# modifications: Moiety B (HOOC-(CH2)16-CO-gGlu-2XADO-EDA-CO-CH2) on 35C of Linker (66C of fusion polypeptide)
# B25: MLC092 (ligand)
# chain: B1 chain with C48G, Q49A, A50Q, E66C
# modifications: Moiety C (HOOC-(CH2)20-CO-gGlu-2XADO-EDA-CO-CH2) on 35C of Linker (66C of fusion polypeptide)
# B26: MLC018 (ligand)
# chain: HGEGTFTSDVSSYLEEQAAREFIAWLVRGGGGQEPGAQPGQEPGAQPGQEPGAQPGQEPGAQPGQEPGAQPGQEPGAQPGQEKGAQPGQEPGAQPGQEPGAQPGQEPGAQPARQGDHCPLGPGRCCRLHTVRASLEDLGWADWVLSPREVQVTMCIGACPSQFRAANLHAQIKTSLHRLRPDTVPAPCCVPASYNPMVLIQRTDTGVSLQTYDDLLARDCHCI
# modifications: Moiety A (HOOC-(CH2)16-CO-gGlu-2XADO) on 52K of Linker (83K of fusion polypeptide)
# B27: MLC017 (ligand)
# chain: B13 chain with K32G
# modifications: Moiety A (HOOC-(CH2)16-CO-gGlu-2XADO) on 55K of Linker (86K of fusion polypeptide)
# B28: MLC104 (ligand)
# chain: B13 chain with K32G, K86Q, P107K
# modifications: Moiety A (HOOC-(CH2)16-CO-gGlu-2XADO) on 76K of Linker (107K of fusion polypeptide)
# B29: MLC046 (ligand)
# chain: B13 chain with K32G, K86Q, P91K
# modifications: Moiety A (HOOC-(CH2)16-CO-gGlu-2XADO) on 60K of linker (91K of fusion polypeptide)
# B30: MLC103 (ligand)
# chain: B13 chain with K32G, K86Q, Q102K
# modifications: Moiety A (HOOC-(CH2)16-CO-gGlu-2XADO) on 71K of Linker (102K of fusion polypeptide)
# Target: T1, human GLP-1 receptor (human, UniProt P43220 24-463)
# Assay: cell-based or functional assay
row,Binder,"GLP-1 activity (EC50, pM, 1% HSA) [pM]"
1,B1,168
2,B2,872
3,B3,434
4,B4,9.53
5,B5,24.4
6,B6,39.9
7,B7,7.52
8,B8,24.4
9,B9,9.67
10,B10,27.3

# Target: T2, human GFRAL (human, UniProt Q6UXV0 19-394)
# T2 sequence (looked up): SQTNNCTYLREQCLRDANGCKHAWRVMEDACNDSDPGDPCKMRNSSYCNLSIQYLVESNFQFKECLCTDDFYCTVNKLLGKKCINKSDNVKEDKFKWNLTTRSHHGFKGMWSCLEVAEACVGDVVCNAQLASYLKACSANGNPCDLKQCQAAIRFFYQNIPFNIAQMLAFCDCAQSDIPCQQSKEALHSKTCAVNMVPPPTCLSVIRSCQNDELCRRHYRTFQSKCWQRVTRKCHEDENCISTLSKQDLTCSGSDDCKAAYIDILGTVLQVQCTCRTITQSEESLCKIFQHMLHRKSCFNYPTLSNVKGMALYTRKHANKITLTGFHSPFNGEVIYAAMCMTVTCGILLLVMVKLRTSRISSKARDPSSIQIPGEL
# Assay: cell-based or functional assay
row,Binder,"GDF15 activity (EC50, pM, 1% HSA) [pM]"
1,B11,11.3
2,B1,55.5
3,B2,72.8
4,B3,70.2
5,B4,1360
6,B5,49.2
7,B6,58
8,B7,194
9,B8,66.2
10,B9,1670
11,B10,67.6

# Target: T1, human GLP-1 receptor
# Assay: cell-based or functional assay
# Remark: another data set of the same source
row,Binder,"GLP-1 activity (EC50, pM) [pM]"
1,B12,3
2,B13,1.2
3,B14,1.2
4,B15,1.3
5,B16,1.3
6,B17,0.94
7,B18,1.6
8,B19,1.1
9,B20,1.5
10,B21,1.7
11,B1,10
12,B22,1.5
13,B23,1.6
14,B5,1.4
15,B6,1.1
16,B7,11
17,B24,2
18,B8,1.2
19,B25,2.2
20,B10,1.4
21,B26,3.3
22,B27,2.8
23,B28,0.88
24,B29,1
25,B30,0.89

# Target: T2, human GFRAL
# Assay: cell-based or functional assay
# Remark: another data set of the same source
row,Binder,"GDF15 activity (EC50, pM) [pM]"
1,B12,20.3
2,B13,114
3,B14,69.8
4,B15,70.5
5,B16,48.6
6,B17,41.1
7,B18,86.8
8,B19,32.4
9,B20,22
10,B21,52.4
11,B11,8.1
12,B1,50
13,B22,23.6
14,B23,30.2
15,B5,23.8
16,B6,59.3
17,B7,54.9
18,B24,34.9
19,B8,42.9
20,B25,48.6
21,B10,54.8
22,B26,75.5
23,B27,77.6
24,B28,79.4
25,B29,78.9
26,B30,79.2
